# Article doi:10.1101/2022.06.01.494241
# Target: mLight (rat)
# Details: scale: % ΔF/Fo
substance,measurement,value
"[D-Ala^2, N-MePhe^4, Gly-ol]-enkephalin (peptide)","sensor fluorescence response (ΔF/Fo) in HEK293 cells, 500 nM to 100 μM DAMGO",9.06
